The text below walks through data of PMC4467794 (Cell, 2015).

The test concerns the target T1, Mcx1^Y174A-3xFLAG (pore-1 loop Y174A), purified recombinant (S. cerevisiae, UniProt P38323 14-520, Y174A).
T1 sequence (looked up): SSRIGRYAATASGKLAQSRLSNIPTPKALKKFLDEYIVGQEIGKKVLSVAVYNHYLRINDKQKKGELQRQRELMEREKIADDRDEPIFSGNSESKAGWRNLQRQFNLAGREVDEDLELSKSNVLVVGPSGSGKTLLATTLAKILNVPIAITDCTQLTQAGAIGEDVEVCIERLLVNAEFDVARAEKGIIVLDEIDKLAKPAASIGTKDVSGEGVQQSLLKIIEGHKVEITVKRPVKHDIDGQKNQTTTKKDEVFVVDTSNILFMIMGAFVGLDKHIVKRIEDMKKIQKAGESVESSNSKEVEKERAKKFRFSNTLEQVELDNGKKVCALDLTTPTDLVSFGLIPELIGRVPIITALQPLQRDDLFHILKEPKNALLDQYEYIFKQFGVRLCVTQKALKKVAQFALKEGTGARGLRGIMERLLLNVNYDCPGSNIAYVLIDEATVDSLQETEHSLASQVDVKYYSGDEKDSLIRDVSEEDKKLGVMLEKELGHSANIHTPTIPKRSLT
Description: co-IP.

B1: apoHem1 (PLP-free Hem1, yeast ALA synthase), purified recombinant (enzyme)
chain: not shown
Turning to B1, the “fold amount bound relative to holoHem1” value is roughly 10 fold.
